The target in series [1] is T1, extracellular domain of human CD73 (residues 27-549) deglycosylated with PNGase F (human, UniProt P21589, deglycosylated with PNGase F; a glycan left at Asn-311).
T1 construct: CD73 (ecto-5'-nucleotidase, NT5E), human, extracellular domain, residues 27-549; Construct used for SEC-MALS and for the two crystal structures; also called ecto-5'-nucleotidase; NT5E; source: ExpiHEK293, purified (nickel column, PNGase F, size-exclusion chromatography)
The series is described as follows: crystal structure; TB38 Fab::CD73 complex; crystals in 1.6 M sodium phosphate monobasic, 0.4 M potassium phosphate dibasic, 0.1 M sodium phosphate citrate pH 5.3, 4°C. The note with it: both partners purified.

The next series addresses TB38/AS30. The series is described as follows: SPR; Biacore T200, 25°C, HBS-EP+ pH 7.4; antibody captured at low density (5-30 RU) on Protein A chips, CD73 at 3, 12 or 32 nM in the flow (5 min association, 30 min dissociation); 1:1 Langmuir binding model.
For a further series, the target named is TB19/AS30. Described as above.
Another series concerns the target TB19/TB38. The description is as above.
Series [2] concerns the molecule itself. The series is described as follows: crystal structure; TB19 Fab::CD73 complex; crystals in 0.1 M sodium potassium phosphate pH 6.2, 35% 5-methyl-2,4-pentanediol, 2.5% pentaerythritol ethoxylate, 4°C.
Series [3] has as its target T1, extracellular domain of human CD73 …. Described as above. Particulars: both partners purified.
A further series deals with T2, soluble CD73 dimer (human, UniProt P21589).
T2 construct: CD73 (ecto-5'-nucleotidase, NT5E), human, soluble form; Also used here as the target of the functional rows, where CD73 stood whole on COR-L23 cells; also called soluble human CD73
The series is described as follows: BLI; pre-mix epitope binning: monovalent antibodies on protein A biosensors, 100 nM CD73 alone or with a 4-fold molar excess of Fab; PBS pH 7.4, 0.1% BSA, 0.01% Tween 20, 30°C. The note with it: both partners purified.

B1: TB38 Fab (Fab, V domains shown)
VH: QVQLVESGGGVVQPGRSLRLSCAASGFTFSSYGMHWVRQAPGKGLEWVAVFWYDGSNKYYADSVKGRFTISRDNSKNTLYLQMNSLSAEDTAVYYCARAPNWDDAFDIWGQGTMVTVSS
VL: QTVVTQEPSFSVSPGGTVTLTCGLSSGSVSTSYYPNWYQQTPGQAPRTLIYSTNTRSSGVPDRFSGSILGNKAALTITGAQADDESDYYCVLFMGSGIWVFGGGTKLTVL
notes: deposited with the structure TB38::CD73, PDB 6VCA (full Fab built on the open CD73 dimer); also called TB38 Fv
Turning to B1, in series [1], the binding result is reported as “binds”.

B2: soluble CD73 dimer (enzyme)
chain: WELTILHTNDVHSRLEQTSEDSSKCVNASRCMGGVARLFTKVQQIRRAEPNVLLLDAGDQYQGTIWFTVYKGAEVAHFMNALRYDAMALGNHEFDNGVEGLIEPLLKEAKFPILSANIKAKGPLASQISGLYLPYKVLPVGDEVVGIVGYTSKETPFLSNPGTNLVFEDEITALQPEVDKLKTLNVNKIIALGHSGFEMDKLIAQKVRGVDVVVGGHSNTFLYTGNPPSKEVPAGKYPFIVTSDDGRKVPVVQAYAFGKYLGYLKIEFDERGNVISSHGNPILLNSSIPEDPSIKADINKWRIKLDNYSTQELGKTIVYLDGSSQSCRFRECNMGNLICDAMINNNLRHTDEMFWNHVSMCILNGGGIRSPIDERNNGTITWENLAAVLPFGGTFDLVQLKGSTLKKAFEHSVHRYGQSTGEFLQVGGIHVVYDLSRKPGDRVVKLDVLCTKCRVPSYDPLKMDEVYKVILPNFLANGGDGFQMIKDELLRHDSGDQDINVVSTYISKMKVIYPAVEGRIKFS
As to B2, the Kd in the series with TB38/AS30 was determined as 0.814 nM; with TB19/AS30 it was 4.18 nM; with TB19/TB38, 0.555 nM. Besides, the koff with TB38/AS30 was 0.000187 s⁻¹; with TB19/AS30, 0.00069 s⁻¹; with TB19/TB38, 0.000102 s⁻¹. Further, the kon with TB38/AS30 came out at 237000 M⁻¹ s⁻¹; in the series with TB19/AS30 it was 165000 M⁻¹ s⁻¹; with TB19/TB38, 184000 M⁻¹ s⁻¹.

B3: extracellular domain of human CD73 (residues 27-549) deglycosylated with PNGase F (enzyme, UniProt P21589 27-549, looked up)
chain: WELTILHTNDVHSRLEQTSEDSSKCVNASRCMGGVARLFTKVQQIRRAEPNVLLLDAGDQYQGTIWFTVYKGAEVAHFMNALRYDAMALGNHEFDNGVEGLIEPLLKEAKFPILSANIKAKGPLASQISGLYLPYKVLPVGDEVVGIVGYTSKETPFLSNPGTNLVFEDEITALQPEVDKLKTLNVNKIIALGHSGFEMDKLIAQKVRGVDVVVGGHSNTFLYTGNPPSKEVPAGKYPFIVTSDDGRKVPVVQAYAFGKYLGYLKIEFDERGNVISSHGNPILLNSSIPEDPSIKADINKWRIKLDNYSTQELGKTIVYLDGSSQSCRFRECNMGNLICDAMINNNLRHTDEMFWNHVSMCILNGGGIRSPIDERNNGTITWENLAAVLPFGGTFDLVQLKGSTLKKAFEHSVHRYGQSTGEFLQVGGIHVVYDLSRKPGDRVVKLDVLCTKCRVPSYDPLKMDEVYKVILPNFLANGGDGFQMIKDELLRHDSGDQDINVVSTYISKMKVIYPAVEGRIKFS
modifications: deglycosylated with PNGase F; a glycan left at Asn-311
notes: CD73 (ecto-5'-nucleotidase, NT5E), human, extracellular domain, residues 27-549; Construct used for SEC-MALS and for the two crystal structures; also called ecto-5'-nucleotidase; NT5E; source: ExpiHEK293, purified (nickel column, PNGase F, size-exclusion chromatography)
Consider B3, for which, in series [2], the “stoichiometry N” value was 2.

B4: TB19 Fab (Fab, V domains shown)
VH: QEQLQESGPGLVKPSETLSLTCTVSGGSIRNNYYNWIRQPAGKGLEWIGRIYISGTTNSNPSLKSRVTMSIDTSKNQFSLKLSSVTAADTAIYYCAREHYVSGTSLDNWGQGTLVTVSS
VL: EIVMTQSPTTLSLSPGERATLSCRASQSVNTNYFSWYQQKPGLTPRLLIYGTSTRATGIPARFSGSGSGTDFTLTISSLQPEDFGIYYCQQDYNLPYTFGQGTYLEIK
notes: deposited with the structure TB19::CD73, PDB 6VC9 (only the Fv could be built); The methods speak of a 'TB19.3 Fv model' as search model; also called TB19 Fv
In the case of B4, the binding result (in series [3]; with soluble CD73 dimer) was “binds” each time.

The values are drawn from article PMC7939394, “A highly potent CD73 biparatopic antibody blocks organization of the enzyme active site through dual mechanisms” (The Journal of Biological Chemistry, 2020).
